{"source": "paper PMC3562429", "about": "(Developmental cell, 2013)", "target": "T1, Aim3 (budding yeast, UniProt P38266 1-947)", "T1 sequence (looked up)": "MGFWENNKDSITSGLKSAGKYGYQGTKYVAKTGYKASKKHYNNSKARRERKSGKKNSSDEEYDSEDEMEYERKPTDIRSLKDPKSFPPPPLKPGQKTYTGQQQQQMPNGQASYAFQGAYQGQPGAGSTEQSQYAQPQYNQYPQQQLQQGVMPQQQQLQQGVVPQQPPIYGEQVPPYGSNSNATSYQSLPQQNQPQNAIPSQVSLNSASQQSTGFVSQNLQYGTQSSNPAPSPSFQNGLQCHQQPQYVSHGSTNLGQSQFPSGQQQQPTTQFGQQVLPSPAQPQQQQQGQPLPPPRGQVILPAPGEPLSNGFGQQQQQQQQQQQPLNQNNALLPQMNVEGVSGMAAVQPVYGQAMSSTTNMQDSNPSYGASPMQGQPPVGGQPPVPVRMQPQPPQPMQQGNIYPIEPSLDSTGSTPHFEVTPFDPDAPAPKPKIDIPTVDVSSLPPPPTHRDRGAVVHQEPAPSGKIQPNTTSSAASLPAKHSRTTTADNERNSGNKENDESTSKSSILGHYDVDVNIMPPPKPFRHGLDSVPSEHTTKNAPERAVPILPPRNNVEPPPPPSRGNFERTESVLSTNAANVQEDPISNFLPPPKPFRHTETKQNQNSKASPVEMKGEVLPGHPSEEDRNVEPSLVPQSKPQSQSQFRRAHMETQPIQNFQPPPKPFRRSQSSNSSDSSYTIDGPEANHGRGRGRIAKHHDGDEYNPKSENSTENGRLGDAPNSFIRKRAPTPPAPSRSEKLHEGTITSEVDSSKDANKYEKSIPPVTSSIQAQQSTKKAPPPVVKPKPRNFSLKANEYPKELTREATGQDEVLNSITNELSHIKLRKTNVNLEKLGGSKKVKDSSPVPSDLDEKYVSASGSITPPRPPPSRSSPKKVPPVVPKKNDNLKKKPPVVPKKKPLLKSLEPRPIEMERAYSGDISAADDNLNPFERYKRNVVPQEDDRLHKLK", "test": "pull-down"}
{"binder": "Abp1-9myc (Actin binding protein 1) (natural protein, budding yeast, UniProt P15891 1-592, looked up) MALEPIDYTTHSREIDAEYLKIVRGSDPDTTWLIISPNAKKEYEPESTGSSFHDFLQLFDETKVQYGLARVSPPGSDVEKIIIIGWCPDSAPLKTRASFAANFAAVANNLFKGYHVQVTARDEDDLDENELLMKISNAAGARYSIQTSSKQQGKASTPPVKKSFTPSKSPAPVSKKEPVKTPSPAPAAKISSRVNDNNDDDDWNEPELKERDFDQAPLKPNQSSYKPIGKIDLQKVIAEEKAKEDPRLVQKPTAAGSKIDPSSDIANLKNESKLKRDSEFNSFLGTTKPPSMTESSLKNDDDKVIKGFRNEKSPAQLWAERKAKQNSGNAETKAEAPKPEVPEDEPEGEPDVKDLKSKFEGLAASEKEEEEMENKFAPPPKKSEPTIISPKPFSKPQEPVKAEEAEQPKTDYKKIGNPLPGMHIEADNEEEPEENDDDWDDDEDEAAQPPLPSRNVASGAPVQKEEPEQEEIAPSLPSRNSIPAPKQEEAPEQAPEEEIEEEAEEAAPQLPSRSSAAPPPPPRRATPEKKPKENPWATAEYDYDAAEDNELTFVENDKIINIEFVDDDWWLGELEKDGSKGLFPSNYVSLGN", "values": [{"measurement": "binding result", "result": "binds"}]}
